From patent US20190315859A1

Legend:
[1] = molecular target: human CD19 expressed on the cell surface (native format) (human) (UniProt P15391); experiment: bi-specific antibody titration flow cytometry on Raji cells
[2] = molecular target: human CD19 expressed on the cell surface (native format) (human) (UniProt P15391); experiment: flow cytometry, human PBMC gated on CD20+CD3- B cells, FITC anti-His detection
[3] = molecular target: human CD19 expressed on the cell surface (native format) (human) (UniProt P15391); experiment: apparent KD from bi-specific antibody titration flow cytometry on Raji cells

Sequence of human CD19 expressed on the cell surface (native format) (human) (P15391 20-488 limits assumed): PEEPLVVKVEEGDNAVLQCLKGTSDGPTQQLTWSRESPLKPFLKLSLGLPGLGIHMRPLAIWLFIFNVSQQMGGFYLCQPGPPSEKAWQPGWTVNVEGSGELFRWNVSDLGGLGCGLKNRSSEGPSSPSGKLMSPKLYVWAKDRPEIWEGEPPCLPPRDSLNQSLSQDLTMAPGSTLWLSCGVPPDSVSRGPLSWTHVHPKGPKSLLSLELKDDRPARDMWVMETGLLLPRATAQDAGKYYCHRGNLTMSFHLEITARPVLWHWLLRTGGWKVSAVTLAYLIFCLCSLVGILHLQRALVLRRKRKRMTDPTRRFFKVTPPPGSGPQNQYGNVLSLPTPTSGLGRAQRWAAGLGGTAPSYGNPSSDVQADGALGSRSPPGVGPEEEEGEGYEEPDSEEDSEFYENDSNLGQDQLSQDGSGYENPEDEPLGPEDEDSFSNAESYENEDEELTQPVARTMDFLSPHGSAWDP

EC50 [1] [µg/mL] | Mean Fluorescence Intensity (MFI) in FITC channel [2] [MFI] | Kd [3] [nM] | Binder
0.214 | 2200 | 4.1 | CD19×CD3 bi-specific antibody based on clone 6 (bispecific antibody, part only; not given: anti-CD3 scFv arm, linker, His tag, not shown: another chain or arm of the molecule; small tags and cut ends) scFv: QAVLTQPPSVSEAPRQRVTISCSGSSSNVGNNAVNWYQQVPGKAPKLLIYYDDLLSSGVSDRFSGSKSGTSASLAISGLQSEDEADYYCAAWDDSLNGPVFGGGTKLTVLGSRGGGGSGGGGSGGGGSLEMAEVQLVQSGAEVKKPGESLKISCKGSGYSFTSYWIGWVRQMPGKGLEWMGIIYPGDSDTRYSPSFQGQVTISADKSISTAYLQWSSLKASDTAMYYCARWSSTWDSMYMDYWGQGTLVTVSS
0.081 |  | 1.6 | CD19×CD3 bi-specific antibody based on variant clone 5-3 (bispecific antibody, part only; not given: anti-CD3 scFv, linker, His tag, not shown: another chain or arm of the molecule; small tags and cut ends) scFv: LPVLTQPPSVSVAPGKTARITCGGNNIGSKSVHWYQQKPGQAPVLVVYDDSNRPSGIPERFSGSNSGNTATLTISRVEAGDEADYYCQVWDSSSEYVVFGGGTKLTVLGSRGGGGSGGGGSGGGGSLEMAEVQLVQSGAEVKKPGESLKISCKGSGYSFTSYWIGWVRQMPGKGLEWMGIIYPGDSDTRYSPSFQGQVTISADKSISTAYLQWSSLKASDTAMYYCARQVWGWQGGMYPRSNWWYNMDSWGQGTLVTVSS
 | 1880 |  | CD19×CD3 bi-specific antibody based on clone 7 (bispecific antibody, part only; not given: anti-CD3 scFv, linker, His tag, not shown: another chain or arm of the molecule; small tags and cut ends) scFv: QPVLTQPPSVSVAPGKTARITCGGNNIGSESVHWYQQKPGQAPMVVIYYDSNRPSGIPERFSGSNSGNTATLTVSRVEAEDEADYYCQVWNSSSDHRGVFGGGTKLTVLGSRGGGGSGGGGSGGGGSLEMAEVQLVQSGAEVKKPGESLRISCKGSGYSFTSYWIGWVRQMPGKGLEWMGIIYPGDSDTRYSPSFQGQVTISADKSISTAYLQWSSLKASDTAMYYCARVTYSMDSYYFDSWGQGTLVTVSS
